# Data taken from patent publication US20100119588A1.
# Biological target: hemagglutinin H1 on influenza virus A/Puerto Rico/8/34 strain (H1N1) (influenza virus A/Puerto Rico/8/34 (H1N1)) (UniProt P03452)
# Assay: cell-based or functional assay
substance,measurement,value
C18-s2(1-4)P4A (C18-ARLA peptide amide),"IC50(µM), plaque assay, infection of MDCK cells",> 100 µM
